Experimental data taken from patent US20230212587A1, “Mutant Hydroxyphenylpyruvate Dioxygenase Polypeptide, Encoding Gene Thereof and Use Therefor” (Beijing Dabeinong Biotechnology Co., Ltd., priority 2019, published 2023).
Residue numbers refer to the chain shown, from its start. Numbers in names are those of the source.

B1: HvHPPDm-F372G: Hordeum vulgare HPPD mutant F372G, SEQ ID NO: 305 (protein)
chain: MPPTPTTPAATGAAAAVTPEHARPHRMVRFNPRSDRFHTLSFHHVEFWCADAASAAGRFAFALGAPLAARSDLSTGNSAHASQLLRSGSLAFLFTAPYANGCDAATASLPSFSADAARRFSADHGIAVRSVALRVADAAEAFRASRRRGARPAFAPVDLGRGFAFAEVELYGDVVLRFVSHPDGTDVPFLPGFEGVTNPDAVDYGLTRFDHVVGNVPELAPAAAYIAGFTGFHEFAEFTAEDVGTTESGLNSVVLANNSEGVLLPLNEPVHGTKRRSQIQTFLEHHGGPGVQHIAVASSDVLRTLRKMRARSAMGGFDFLPPPLPKYYEGVRRLAGDVLSEAQIKECQELGVLVDRDDQGVLLQIGTKPVGDRPTLFLEMIQRIGCMEKDERGEEYQKGGCGGFGKGNFSELFKSIEDYEKSLEAKQSAAVQGS
modifications: HvHPPDm-F372G Amino Acid Sequence
B2: BdHPPDm-F372G: Brachypodium distachyon HPPD mutant F372G, SEQ ID NO: 303 (protein)
chain: MPPPATTAAPAAAAVTPEHARPPRRVARVNPRSDRFSALSFHHVELWCADAASAAGRFSFALGAPPAARSDLSTGNSAHASILLRSGSLAFLFTAPYAPSPASDSAASIPSFSASAARQFTADHGGLAVRAVALRVSSASDAFHASVSAGARPSFPPADLGQGFALAEVELYGDVVLRFISHPDENTEIPFLPGFESVSNPGASTYGLTRFDHVVGNVPSLAPVAAYIAGFTGFHEFAEFTAEDVGTADSGLNSVVLANNSERVLLPLNEPVHGTKRRSQIQTYLDHHGGPGVQHIALASDDVLRTLREMRARSAMGGFEFLAPPPPNYYDGVRRRAGDVLSEAQIKECQELGVLVDRDDQGVLLQIGTKPVGDRPTLFLEMIQRIGCMEKDEIGQEQQKGGCGGFGKGNFSELFRSIEEYEKSLEAKQSAVVQES
modifications: BdHPPDm-F372G Amino Acid Sequence
B3: F372W (protein, listed as Avena sativa)
chain: MPPTPATATGAAAAAVTPEHAARSFPRVVRVNPRSDRFPVLSFHHVELWCADAASAAGRFSFALGAPLAARSDLSTGNSAHASLLLRSGALAFLFTAPYAPPPQEAATAAATASIPSFSADAARTFAAAHGLAVRSVGVRVADAAEAFRVSVAGGARPAFAPADLGHGFGLAEVELYGDVVLRFVSYPDETDLPFLPGFERVSSPGAVDYGLTRFDHVVGNVPEMAPVIDYMKGFLGFHEFAEFTAEDVGTTESGLNSVVLANNSEAVLLPLNEPVHGTKRRSQIQTYLEYHGGPGVQHIALASNDVLRTLREMRARTPMGGFEFMAPPQAKYYEGVRRIAGDVLSEEQIKECQELGVLVDRDDQGVLLQIWTKPVGDRPTFFLEMIQRIGCMEKDEVGQEYQKGGCGGFGKGNFSELFKSIEDYEKSLEVKQSVVAQKS
modifications: AsHPPD Amido Acid Sequence
B4: F372M (protein, listed as Avena sativa)
chain: B3 chain with W372M
modifications: AsHPPD Amido Acid Sequence
B5: F372T (protein, listed as Avena sativa)
chain: B3 chain with W372T
modifications: AsHPPD Amido Acid Sequence
B6: F372C (protein, listed as Avena sativa)
chain: B3 chain with W372C
modifications: AsHPPD Amido Acid Sequence
B7: F372K. (protein, listed as Avena sativa)
chain: B3 chain with W372K
modifications: AsHPPD Amido Acid Sequence
B8: F372E (protein, listed as Avena sativa)
chain: B3 chain with W372E
modifications: AsHPPD Amido Acid Sequence
B9: F372S (protein, listed as Avena sativa)
chain: B3 chain with W372S
modifications: AsHPPD Amido Acid Sequence
B10: F372 deletion (protein, listed as Avena sativa)
chain: MPPTPATATGAAAAAVTPEHAARSFPRVVRVNPRSDRFPVLSFHHVELWCADAASAAGRFSFALGAPLAARSDLSTGNSAHASLLLRSGALAFLFTAPYAPPPQEAATAAATASIPSFSADAARTFAAAHGLAVRSVGVRVADAAEAFRVSVAGGARPAFAPADLGHGFGLAEVELYGDVVLRFVSYPDETDLPFLPGFERVSSPGAVDYGLTRFDHVVGNVPEMAPVIDYMKGFLGFHEFAEFTAEDVGTTESGLNSVVLANNSEAVLLPLNEPVHGTKRRSQIQTYLEYHGGPGVQHIALASNDVLRTLREMRARTPMGGFEFMAPPQAKYYEGVRRIAGDVLSEEQIKECQELGVLVDRDDQGVLLQITKPVGDRPTFFLEMIQRIGCMEKDEVGQEYQKGGCGGFGKGNFSELFKSIEDYEKSLEVKQSVVAQKS
modifications: AsHPPD Amido Acid Sequence

System: Arabidopsis thaliana T1 plants
Assay: Topramezone tolerance of transgenic Arabidopsis thaliana T1 plants (pesticide damage grade by bleached leaf area, score, resistance evaluation)
Assay type: in vivo
Design: score: scale not given here
Conditions: topramezone 25 g ai/ha (1x); HPPD F372G mutants, Table 6
Summary of the method: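 Herbicide tolerance was judged per plant on a bleaching scale (grade 0 no bleaching to grade 3 fully bleached) 7 DAT. Topramezone doses were 0, 25, 50 and 100 g ai/ha on 18-day-old T1 and wild-type plants.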

| Molecule | Resistance evaluation |
| --- | --- |
| B1 | Highly resistant |
| B2 | Highly resistant |

Same assay, conditions: topramezone 25 g ai/ha (1x); HPPD from Avena sativa source

| Molecule | Resistance Grade | score |
| --- | --- | --- |
| B3 | Poorly resistant | 37 |
| B4 | Highly resistant | 0 |
| B5 | Highly resistant | 0 |
| B6 | Highly resistant | 0 |
| B7 | Moderately resistant | 33 |
| B8 | Poorly resistant | 60 |
| B9 | Highly resistant | 0 |
| B10 | Highly resistant | 0 |

Same assay, conditions: topramezone 25 g ai/ha (1x); number of plants; HPPD from Avena sativa source

| Molecule | Grade 0 | Grade 1 | Grade 2 | Grade 3 |
| --- | --- | --- | --- | --- |
| B3 | 6 | 6 | 8 | 0 |
| B4 | 20 | 0 | 0 | 0 |
| B5 | 20 | 0 | 0 | 0 |
| B6 | 20 | 0 | 0 | 0 |
| B7 | 0 | 20 | 0 | 0 |
| B8 | 0 | 8 | 8 | 4 |
| B9 | 20 | 0 | 0 | 0 |
| B10 | 20 | 0 | 0 | 0 |

Same assay, conditions: topramezone 50 g ai/ha (2x); HPPD from Avena sativa source

| Molecule | Resistance Grade | score |
| --- | --- | --- |
| B3 | Non-resistant | 100 |
| B4 | Moderately resistant | 20 |
| B5 | Highly resistant | 3 |
| B6 | Highly resistant | 3 |
| B7 | Poorly resistant | 47 |
| B8 | Poorly resistant | 63 |
| B9 | Highly resistant | 0 |
| B10 | Highly resistant | 0 |

Same assay, conditions: topramezone 50 g ai/ha (2x); number of plants; HPPD from Avena sativa source

| Molecule | Grade 0 | Grade 1 | Grade 2 | Grade 3 |
| --- | --- | --- | --- | --- |
| B3 | 0 | 0 | 0 | 20 |
| B4 | 8 | 12 | 0 | 0 |
| B5 | 18 | 2 | 0 | 0 |
| B6 | 18 | 2 | 0 | 0 |
| B7 | 2 | 8 | 10 | 0 |
| B8 | 0 | 6 | 10 | 4 |
| B9 | 20 | 0 | 0 | 0 |
| B10 | 20 | 0 | 0 | 0 |

Same assay, conditions: topramezone 100 g ai/ha (4x); HPPD F372G mutants, Table 6

| Molecule | Resistance evaluation |
| --- | --- |
| B1 | Poorly resistant |
| B2 | Moderately resistant |

Same assay, conditions: topramezone 100 g ai/ha (4x); HPPD from Avena sativa source

| Molecule | Resistance Grade | score |
| --- | --- | --- |
| B3 | Non-resistant | 100 |
| B4 | Poorly resistant | 50 |
| B5 | Moderately resistant | 17 |
| B6 | Moderately resistant | 27 |
| B7 | Non-resistant | 90 |
| B8 | Non-resistant | 97 |
| B9 | Highly resistant | 0 |
| B10 | Highly resistant | 3 |

Same assay, conditions: topramezone 100 g ai/ha (4x); number of plants; HPPD from Avena sativa source

| Molecule | Grade 0 | Grade 1 | Grade 2 | Grade 3 |
| --- | --- | --- | --- | --- |
| B3 | 0 | 0 | 0 | 20 |
| B4 | 2 | 6 | 12 | 0 |
| B5 | 10 | 10 | 0 | 0 |
| B6 | 8 | 8 | 4 | 0 |
| B7 | 0 | 0 | 6 | 14 |
| B8 | 0 | 0 | 2 | 18 |
| B9 | 20 | 0 | 0 | 0 |
| B10 | 18 | 2 | 0 | 0 |
